Experimental data published in the supplement of paper PMC11246515.
± gives the standard deviation of the averaged measurements.

Assay: total protein half-life in vivo (active degradation + dilution); higher = more stable protein
[1] = E. coli NCM3722 delta-clpP delta-lon delta-hslV, growth: N-lim chemostat, doubling time 6 h
[2] = E. coli NCM3722 delta-clpP, growth: N-lim chemostat, doubling time 6 h
[3] = E. coli NCM3722 delta-hslV, growth: N-lim chemostat, doubling time 6 h
[4] = E. coli NCM3722 delta-lon, growth: N-lim chemostat, doubling time 6 h
[5] = E. coli NCM3722 delta-smpB, growth: N-lim chemostat, doubling time 6 h
[6] = wild type E. coli NCM3722, growth: C-lim chemostat, doubling time 3 h
[7] = wild type E. coli NCM3722, growth: C-lim chemostat, doubling time 6 h
[8] = wild type E. coli NCM3722, growth: C-lim chemostat, doubling time 12 h
[9] = wild type E. coli NCM3722, growth: N-lim chemostat, doubling time 6 h
[10] = wild type E. coli NCM3722, growth: N-lim chemostat, doubling time 12 h
[11] = wild type E. coli NCM3722, growth: P-lim chemostat, doubling time 6 h
[12] = wild type E. coli NCM3722, growth: P-lim chemostat, doubling time 12 h

Sequence	total protein half-life in vivo [1] [h]	total protein half-life in vivo [2] [h]	total protein half-life in vivo [3] [h]	total protein half-life in vivo [4] [h]	total protein half-life in vivo [5] [h]	total protein half-life in vivo [6] [h]	total protein half-life in vivo [7] [h]	total protein half-life in vivo [8] [h]	total protein half-life in vivo [9] [h]	total protein half-life in vivo [10] [h]	total protein half-life in vivo [11] [h]	total protein half-life in vivo [12] [h]
MIIATAGHVDHGKTTLLQAITGVNADRLPEEKKRGMTIDLGYAYWPQPDGRVPGFIDVPGHEKFLSNMLAGVGGIDHALLVVACDDGVMAQTREHLAILQLTGNPMLTVALTKADRVDEARVDEVERQVKEVLREYGFAEAKLFITAATEGRGMDALREHLLQLPEREHASQHSFRLAIDRAFTVKGAGLVVTGTALSGEVKVGDSLWLTGVNKPMRVRALHAQNQPTETANAGQRIALNIAGDAEKEQINRGDWLLADVPPEPFTRVIVELQTHTPLTQWQPLHIHHAASHVTGRVSLLEDNLAELVFDTPLWLADNDRLVLRDISARNTLAGARVVMLNPPRRGKRKPEYLQWLASLARAQSDADALSVHLERGAVNLADFAWARQLNGEGMRELLQQPGYIQAGYSLLNAPVAARWQRKILDTLATYHEQHRDEPGPGRERLRRMALPMEDEALVLLLIEKMRESGDIHSHHGWLHLPDHKAGFSEEQQAIWQKAEPLFGDEPWWVRDLAKETGTDEQAMRLTLRQAAQQGIITAIVKDRYYRNDRIVEFANMIRDLDQECGSTCAADFRDRLGVGRKLAIQILEYFDRIGFTRRRGNDHLLRDALLFPEK	6.2 ± 0.45	4.93 ± 0.33	5.22 ± 0.44	5.39 ± 0.23	4.57 ± 0.11	2.77 ± 0.057	5.56 ± 0.59	9.26 ± 0.52	4.97 ± 0.16	8.6 ± 0.22	4.25 ± 0.27	6.81 ± 0.26
MIIGNIHNLQPWLPQELRQAIEHIKAHVTAETPKGKHDIEGNRLFYLISEDMTEPYEARRAEYHARYLDIQIVLKGQEGMTFSTQPAGAPDTDWLADKDIAFLPEGVDEKTVILNEGDFVVFYPGEVHKPLCAVGAPAQVRKAVVKMLMA [P0AF96]	4.25 ± 0.25	4.23 ± 2.1	3.43	–	3.75 ± 0.1	–	–	8.12 ± 0.22	3.18 ± 0.1	5.175 ± 0.0007	4.55 ± 0.89	10.1 ± 0.29
MIIHFTLNGAPQELTVNPGENVQKLLFNMGMHSVRNSDDGFGFAGSDAIIFNGNIVNASLLIAAQLEKADIRTAESLGKWNELSLVQQAMVDVGVVQSGYNDPAAALIITDLLDRIAAPTREEIDDALSGLFSRDAGWQQYYQVIELAVARKNNPQATIDIAPTFRDDLEVIGKHYPKTDAAKMVQAKPCYVEDRVTADACVIKMLRSPHAHALITHLDVSKAEALPGVVHVITHLNCPDIYYTPGGQSAPEPSPLDRRMFGKKMRHVGDRVAAVVAESEEIALEALKLIDVEYEVLKPVMSIDEAMAEDAPVVHDEPVVYVAGAPDTLEDDNSHAAQRGEHMIINFPIGSRPRKNIAASIHGHIGDMDKGFADADVIIERTYNSTQAQQCPTETHICFTRMDGDRLVIHASTQVPWHLRRQVARLVGMKQHKVHVIKERVGGGFGSKQDILLEEVCAWATCVTGRPVLFRYTREEEFIANTSRHVAKVTVKLGAKKDGRLTAVKMDFRANTGPYGNHSLTVPCNGPALSLPLYPCDNVDFQVTTYYSNICPNGAYQGYGAPKGNFAITMALAELAEQLQIDQLEIIERNRVHEGQELKILGAIGEGKAPTSVPSAASCALEEILRQGREMIQWSSPKPQNGDWHIGRGVAIIMQKSGIPDIDQANCMIKLESDGTFIVHSGGADIGTGLDTVVTKLAAEVLHCPPQDVHVISGDTDHALFDKGAYASSGTCFSGNAARLAAENLREKILFHGAQMLGEPVADVQLATPGVVRGKKGEVSFGDIAHKGETGTGFGSLVGTGSYITPDFAFPYGANFAEVAVNTRTGEIRLDKFYALLDCGTPVNPELALGQIYGATLRAIGHSMSEEIIYDAEGHPLTRDLRSYGAPKIGDIPRDFRAVLVPSDDKVGPFGAKSISEIGVNGAAPAIATAIHDACGIWLREWHFTPEKILTALEKI	> 8	–	–	–	–	–	–	9.16	–	–	–	–
MIIKRTPQAASPLASWLSYLENLHSKTIDLGLERVSLVAARLGVLKPAPFVFTVAGTNGKGTTCRTLESILMAAGYKVGVYSSPHLVRYTERVRVQGQELPESAHTASFAEIESARGDISLTYFEYGTLSALWLFKQAQLDVVILEVGLGGRLDATNIVDADVAVVTSIALDHTDWLGPDRESIGREKAGIFRSEKPAIVGEPEMPSTIADVAQEKGALLQRRGVEWNYSVTDHDWAFSDAHGTLENLPLPLVPQPNAATALAALRASGLEVSENAIRDGIASAILPGRFQIVSESPRVIFDVAHNPHAAEYLTGRMKALPKNGRVLAVIGMLHDKDIAGTLAWLKSVVDDWYCAPLEGPRGATAEQLLEHLGNGKSFDSVAQAWDAAMADAKAEDTVLVCGSFHTVAHVMEVIDARRSGGK	4.62 ± 0.55	4.95 ± 1.1	4.08 ± 0.39	–	3.813 ± 0.021	3.151 ± 0.024	5.09 ± 0.13	9.2 ± 1.6	3.807 ± 0.036	6.07 ± 0.99	5.34 ± 0.23	9.6 ± 0.66
MIINNVKLVLENEVVSGSLEVQNGEIRAFAESQSRLPEAMDGEGGWLLPGLIELHTDNLDKFFTPRPKVDWPAHSAMSSHDALMVASGITTVLDAVAIGDVRDGGDRLENLEKMINAIEETQKRGVNRAEHRLHLRCELPHHTTLPLFEKLVQREPVTLVSLMDHSPGQRQFANREKYREYYQGKYSLTDAQMQQYEEEQLALAARWSQPNRESIAALCRARKIALASHDDATHAHVAESHQLGSVIAEFPTTFEAAEASRKHGMNVLMGAPNIVRGGSHSGNVAASELAQLGLLDILSSDYYPASLLDAAFRVADDQSNRFTLPQAVKLVTKNPAQALNLQDRGVIGEGKRADLVLAHRKDNHIHIDHVWRQGKRVF	–	–	–	–	–	–	–	–	–	–	1.05 ± 0.23	1.89 ± 0.87
MIISAASDYRAAAQRILPPFLFHYMDGGAYSEYTLRRNVEDLSEVALRQRILKNMSDLSLETTLFNEKLSMPVALAPVGLCGMYARRGEVQAAKAADAHGIPFTLSTVSVCPIEEVAPAIKRPMWFQLYVLRDRGFMRNALERAKAAGCSTLVFTVDMPTPGARYRDAHSGMSGPNAAMRRYLQAVTHPQWAWDVGLNGRPHDLGNISAYLGKPTGLEDYIGWLGNNFDPSISWKDLEWIRDFWDGPMVIKGILDPEDARDAVRFGADGIVVSNHGGRQLDGVLSSARALPAIADAVKGDIAILADSGIRNGLDVVRMIALGADTVLLGRAFLYALATAGQAGVANLLNLIEKEMKVAMTLTGAKSISEITQDSLVQGLGKELPAALAPMAKGNAA	6.01 ± 0.3	5.992 ± 0.053	4 ± 0.14	3.3 ± 0.036	3.68 ± 0.38	2.28 ± 0.062	3.76 ± 0.41	5.29 ± 0.5	3.73 ± 0.068	6.57 ± 0.92	3.28 ± 0.48	6.38 ± 0.44
MIISEMQRKLATWAATDPSLRIQRLLRLITQPEWLAEAARITLSSKGAHTPGVDGVNKTMLQARLAVELQILRDELLSGHYQPLPARRVYIPKSNGKLRPLGIPALRDRIVQRAMLMAMEPIWESDFHTLSYGFRPERSVHHAIRTVKLQLTDCGETRGRWVIEGDLSSYFDTVHHRLLMKAVRRRISDARFMTLLWKTIKAGHIDVGLFRAASEGVPQGGVISPLLSNIMLNEFDQYLHERYLSGKARKDRWYWNNSIQRGRSTAVRENWQWKPAVAYCRYADDFVLIVKGTKAQVEAIREECRGVLEGSLKLRLNMDKTKIPHVNDGFIFLGHRLIRKRSRYGEMRVVSTIPQEKARNFAASLTALLWKVRISGEILLG	4.72 ± 0.55	–	–	–	–	–	–	–	–	–	–	–
MIIYLHGFDSNSPGNHEKVLQLQFIDPDVRLISYSTRHPKHDMQHLLKEVDKMLQLNVDERPLICGVGLGGYWAERIGFLCDIRQVIFNPNLFPYENMEGKIDRPEEYADIATKCVTNFREKNRDRCLVILSRNDEALNSQRTSEELHHYYEIVWDEEQTHKFKNISPHLQRIKAFKTLG [P0A8E1]	4.77 ± 0.071	4.58 ± 1.1	4.44 ± 0.73	4.75 ± 0.35	4.37 ± 0.91	2.64 ± 0.47	4.65 ± 0.2	7.7 ± 1.6	3.92 ± 0.39	6.49 ± 0.25	5.07 ± 0.15	10.6 ± 0.38
MIKATDRKLVVGLEIGTAKVAALVGEVLPDGMVNIIGVGSCPSRGMDKGGVNDLESVVKCVQRAIDQAELMADCQISSVYLALSGKHISCQNEIGMVPISEEEVTQEDVENVVHTAKSVRVRDEHRVLHVIPQEYAIDYQEGIKNPVGLSGVRMQAKVHLITCHNDMAKNIVKAVERCGLKVDQLIFAGLASSYSVLTEDERELGVCVVDIGGGTMDIAVYTGGALRHTKVIPYAGNVVTSDIAYAFGTPPSDAEAIKVRHGCALGSIVGKDESVEVPSVGGRPPRSLQRQTLAEVIEPRYTELLNLVNEEILQLQEKLRQQGVKHHLAAGIVLTGGAAQIEGLAACAQRVFHTQVRIGAPLNITGLTDYAQEPYYSTAVGLLHYGKESHLNGEAEVEKRVTASVGSWIKRLNSWLRKEF [P0ABH0]	6.03 ± 0.16	6.41 ± 0.51	6.33 ± 0.27	6.06 ± 0.5	5.42 ± 0.13	3.04 ± 0.12	5.738 ± 0.047	10 ± 0.52	5.48 ± 0.26	10.8 ± 0.71	5.868 ± 0.02	11.3 ± 0.42
MIKKIGVLTSGGDAPGMNAAIRGVVRSALTEGLEVMGIYDGYLGLYEDRMVQLDRYSVSDMINRGGTFLGSARFPEFRDENIRAVAIENLKKRGIDALVVIGGDGSYMGAMRLTEMGFPCIGLPGTIDNDIKGTDYTIGFFTALSTVVEAIDRLRDTSSSHQRISVVEVMGRYCGDLTLAAAIAGGCEFVVVPEVEFSREDLVNEIKAGIAKGKKHAIVAITEHMCDVDELAHFIEKETGRETRATVLGHIQRGGSPVPYDRILASRMGAYAIDLLLAGYGGRCVGIQNEQLVHHDIIDAIENMKRPFKGDWLDCAKKLY [P0A796]	4.43 ± 0.51	3.9 ± 0.11	4.03 ± 0.12	4.146 ± 0.0074	3.89 ± 0.13	3 ± 0.15	5.83 ± 0.099	10.3 ± 0.71	3.64 ± 0.18	5.77 ± 0.15	5.69 ± 0.36	11.7 ± 0.9
MIKLSNITKVFHQGTRTIQALNNVSLHVPAGQIYGVIGASGAGKSTLIRCVNLLERPTEGSVLVDGQELTTLSESELTKARRQIGMIFQHFNLLSSRTVFGNVALPLELDNTPKDEVKRRVTELLSLVGLGDKHDSYPSNLSGGQKQRVAIARALASNPKVLLCDEATSALDPATTRSILELLKDINRRLGLTILLITHEMDVVKRICDCVAVISNGELIEQDTVSEVFSHPKTPLAQKFIQSTLHLDIPEDYQERLQAEPFTDCVPMLRLEFTGQSVDAPLLSETARRFNVNNNIISAQMDYAGGVKFGIMLTEMHGTQQDTQAAIAWLQEHHVKVEVLGYV	6.5123 ± 0.0016	6.41 ± 0.39	6.04 ± 0.08	6.66 ± 0.25	5.61 ± 0.26	–	5.76 ± 0.38	9.681 ± 0.078	5.85 ± 0.51	12.67 ± 0.12	6.3 ± 0.86	12.1 ± 0.42
MIKQRTLKRIVQATGVGLHTGKKVTLTLRPAPANTGVIYRRTDLNPPVDFPADAKSVRDTMLCTCLVNEHDVRISTVEHLNAALAGLGIDNIVIEVNAPEIPIMDGSAAPFVYLLLDAGIDELNCAKKFVRIKETVRVEDGDKWAEFKPYNGFSLDFTIDFNHPAIDSSNQRYAMNFSADAFMRQISRARTFGFMRDIEYLQSRGLCLGGSFDCAIVVDDYRVLNEDGLRFEDEFVRHKMLDAIGDLFMCGHNIIGAFTAYKSGHALNNKLLQAVLAKQEAWEYVTFQDDAELPLAFKAPSAVLA [P0A725]	2.8 ± 0.28	0.889 ± 0.17	0.979 ± 0.33	1.03 ± 0.011	0.639 ± 0.021	0.467 ± 0.1	0.861 ± 0.11	1.1 ± 0.33	0.978 ± 0.12	1.43 ± 0.28	1.06 ± 0.19	2.1 ± 0.78
MIKRNLPLMITIGVFVLGYLYCLTQFPGFASTRVICNILTDNAFLGIIAVGMTFVILSGGIDLSVGSVIAFTGVFLAKVIGDFGLSPLLAFPLVLVMGCAFGAFMGLLIDALKIPAFIITLAGMFFLRGVSYLVSEESIPINHPIYDTLSSLAWKIPGGGRLSAMGLLMLAVVVIGIFLAHRTRFGNQVYAIGGNATSANLMGISTRSTTIRIYMLSTGLATLAGIVFSIYTQAGYALAGVGVELDAIASVVIGGTLLSGGVGTVLGTLFGVAIQGLIQTYINFDGTLSSWWTKIAIGILLFIFIALQRGLTVLWENRQSSPVTRVNIAQQ	–	–	–	–	–	3.66	6.05	–	–	–	–	–
